Assays:
human CD47-Fc = target: T1, human CD47-Fc (human, UniProt Q08722 19-139); test: direct specificity ELISA, IgG 1 µg/ml, FIG. 5
T1 construct: Recombinant CD47-Fc; also called hCD47-Fc; not shown: Fc part
Description: (§1) FIG. 5A-FIG. 5G. Binding specificity analyses for prioritized lead clones. Off-target homologue binding risk for mVH/mVL in IgG1 (FIG. 5A) and IgG1null (FIG. 5B) format and library-derived leads A-D5 (FIG. 5C), VH-A1/VL-B1 (FIG. 5D), F-E7 (FIG. 5E), D-H3 (FIG. 5F), and G-B6 (FIG. 5G) in IgG1null format was examined by direct ELISA on CD47-Fc orthologs and a panel of 14 human immunoglobulin superfamily proteins as labelled on each X-axis (“B” refers to blank). Binding to human, cyno and murine CD47-Fcs (h/c/mCD47-Fc) was performed at an IgG concentration of 1 μg/ml. Binding to all other proteins was performed at an IgG concentration of 10 μg/ml.
(§2) To ensure that that lead clones had not suffered from loss of target specificity during the mutation and reselection process; lead and control IgG1 clones were tested for binding to a panel of 14 purified human proteins from the immunoglobulin superfamily (FIG. 5).

[1] = target: T2, cynomolgus monkey CD47-Fc (cynomolgus monkey, UniProt A0A2K5X523 19-139); test: direct specificity ELISA, IgG 1 µg/ml, FIG. 5
T2 construct: Recombinant CD47-Fc; also called cyno CD47-Fc; cCD47-Fc; not shown: Fc part
Description: as §1, §2

mouse CD47-Fc = target: T3, mouse CD47-Fc (mouse, UniProt Q61735 19-140, limits assumed); test: direct titration ELISA on coated CD47-Fc, FIG. 3
T3 construct: Recombinant CD47-Fc; also called mCD47-Fc; mCD37-Fc [sic]; not shown: Fc part
T3 sequence (looked up): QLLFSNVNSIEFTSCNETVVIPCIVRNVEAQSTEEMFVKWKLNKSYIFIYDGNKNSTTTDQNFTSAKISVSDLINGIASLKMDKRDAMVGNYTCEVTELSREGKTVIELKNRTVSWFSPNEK
Procedure: FIG. 3A-FIG. 3H. Direct titration ELISA for IgG binding to human, mouse and cyno CD47-Fc proteins. Chimeric anti-CD47 (mVH/mVL), library-derived clones in human IgG1 null format were titrated (in μg/ml) in a direct binding ELISA against human, mouse and cyno CD47-Fc proteins (FIG. 3A-FIG. 3H). […] Clone TTP lost almost all binding function.
To coat Greiner Bio-One High bind ELISA plates, target proteins were diluted to 1 μg/ml in carbonate buffer and added at 100 μl per well, at 4° C., o/n. Coated plates were washed 3× with PBS pH7.4, blocked with 1% BSA in PBS (380 μl/well) for 1 hr at RT, then washed 3× with PBS-Tween 20 (PBST). CD47 antibodies (100 μl/well; diluted in PBST) were then added and then incubated 1 hr at RT. Plates were then washed 3× with PBST and goat anti-human kappa chain-HRP added (100 μl/well) at RT, for 1 hr. Plates were then washed 3× with PBST and twice with PBS before the addition of 100 μl TMB per well. Reactions were stopped by adding 100 μl 2M H₂SO₄/well and OD was read on a plate reader at 450 nm.

[2] = target: T4, cynomolgus monkey CD47 on transfected CHO-K1 cells (cynomolgus monkey, UniProt A0A5F8AK49 19-323 (rhesus entry)); test: flow cytometry, cyno CD47-transfected CHO-K1, FIG. 6
T4 construct: whole, on cells; also called cyno CD47+ cells
Procedure: (§3) FIG. 6A-FIG. 6C. Flow cytometric binding to human and cyno CD47+CHO-K1 cells. Commercial anti-CD47 antibody MS1991, human IgG1 (“I IgG1”) and IgG4 (“I IgG4”) Isotype controls, lead library-derived IgGs in both IgG1null (“IgG1N”) and IgG4(S228P) formats were examined for specific binding on cyno-transfected CHO-K1 cells (FIG. 6A), human-transfected CHO-K1 cells (FIG. 6B), and wild type (wt, i.e. untransfected) CHO-K1 cells (FIG. 6C). IgGs were tested at concentrations ranging from 24-100,000 ng/ml. Concentration-dependent binding was observed against both human and cyno cell lines for all CD47-specific antibodies but not Isotype controls.
(§4) Antibodies to CD47 were analysed for concentration-dependent binding at the cell surface via flow cytometry. CHO-K1 cells were stably transfected with either human, mouse or cyno CD47 full-length cDNAs. Anti-CD47 IgGs mVH/mVL, VH-A1/VL-B1, A-D5, G-B6, F-E7 and D-H3, and an isotype control IgG1 were then all tested in IgG1null and IgG4(S228P) formats, alongside a commercial mouse anti-human CD47 monoclonal MS1991, over a concentration range of 100,000-24 ng/ml for binding to human, cyno or wild type control (‘wt’, i.e. untransfected) CHO-K1.

[3] = target: T5, human CD47 on cells (human CD47-transfected CHO-K1; HL60) (human, UniProt Q08722 19-323); test: flow cytometry, human CD47-transfected CHO-K1, FIG. 6
T5 construct: whole, on cells; also called human CD47+ cells; human CD47+HL60 cells
Procedure: as §3, §4

OD450 nm (human CD47-Fc): > 2 OD450 nm | OD450 nm [1]: > 2 OD450 nm | binding result (mouse CD47-Fc): no binding | maximum MFI, fold over untransfected CHO-K1 [2]: > 10 fold | maximum MFI, fold over untransfected CHO-K1 [3]: > 10 fold
B1: VH-A1/VL-B1 in human IgG1null format (antibody, V domains shown)
VH: EVQLVQSGAEVKKPGESLKISCKGSGYSFTNYYIFWVRQMPGKGLEWMGIINPVDGDTRYSPSFQGQVTISADKSISTAYLQWSSLKASDTAMYYCARGGFTMDYWGQGTLVTVSS
VL: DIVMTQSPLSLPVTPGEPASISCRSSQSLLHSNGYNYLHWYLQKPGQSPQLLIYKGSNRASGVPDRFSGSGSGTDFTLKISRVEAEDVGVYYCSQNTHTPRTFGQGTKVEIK
notes: Combines the two most humanized observed v-domains; IgG1null (L234A/L235A/G237A), kappa; also called VH-A1/VI-B1

From patent US20200277375A1 (ULTRAHUMAN FOUR, published 2020)
